Test results reported in paper PMC9482650, “Quantitative fragmentomics allow affinity mapping of interactomes” (Nature Communications, 2022).

Tests used:
Experiment in all cases: holdup assay
Set-up in all cases: key: below the threshold = too weak to quantify, mostly under pKd 3.1 to 4
Conditions in all cases: plain residues with an end cap or a label only (N-terminal biotin on a linker: ado-ado)
[1] = biological target: T1, FRMPD1, Q5SYB0
T1 sequence (Q5SYB0 52-145, limits assumed, looked up): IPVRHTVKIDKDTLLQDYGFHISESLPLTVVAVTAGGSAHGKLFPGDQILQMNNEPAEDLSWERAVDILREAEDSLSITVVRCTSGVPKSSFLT

[2] = biological target: Inadl_1, Q8NI35
Inadl_1, Q8NI35, sequence (Q8NI35 113-229): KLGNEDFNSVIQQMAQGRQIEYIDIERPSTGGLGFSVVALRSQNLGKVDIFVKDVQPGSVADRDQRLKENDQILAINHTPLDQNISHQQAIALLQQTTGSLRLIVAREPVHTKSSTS

[3] = biological target: FRMPD2_3, Q68DX3
FRMPD2_3, Q68DX3, sequence (Q68DX3 1073-1166): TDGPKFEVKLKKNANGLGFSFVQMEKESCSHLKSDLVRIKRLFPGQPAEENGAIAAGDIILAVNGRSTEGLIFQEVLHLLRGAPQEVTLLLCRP

[4] = biological target: MAGI1_2, Q96QZ7
MAGI1_2, Q96QZ7, sequence (Q96QZ7 456-580): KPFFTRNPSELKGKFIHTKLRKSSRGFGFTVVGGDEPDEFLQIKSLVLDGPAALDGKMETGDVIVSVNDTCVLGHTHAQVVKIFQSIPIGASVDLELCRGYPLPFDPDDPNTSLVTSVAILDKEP

[5] = biological target: NHERF4_4, Q86UT5
NHERF4_4, Q86UT5, sequence (Q86UT5 464-550): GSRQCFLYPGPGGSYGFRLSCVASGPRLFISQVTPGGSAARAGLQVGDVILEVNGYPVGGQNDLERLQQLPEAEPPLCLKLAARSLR

[6] = biological target: T2, SNTA1, Q13424
T2 sequence (Q13424 82-180, limits assumed, looked up): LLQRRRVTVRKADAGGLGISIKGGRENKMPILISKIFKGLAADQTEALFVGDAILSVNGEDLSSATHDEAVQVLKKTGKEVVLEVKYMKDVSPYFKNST

[7] = biological target: T3, ARHGEF11, O15085
T3 sequence (O15085 42-136, limits assumed, looked up): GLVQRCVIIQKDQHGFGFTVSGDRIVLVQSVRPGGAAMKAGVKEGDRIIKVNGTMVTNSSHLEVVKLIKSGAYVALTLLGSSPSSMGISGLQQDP

[8] = biological target: Inadl_8, Q8NI35
Inadl_8, Q8NI35, sequence (Q8NI35 1425-1530): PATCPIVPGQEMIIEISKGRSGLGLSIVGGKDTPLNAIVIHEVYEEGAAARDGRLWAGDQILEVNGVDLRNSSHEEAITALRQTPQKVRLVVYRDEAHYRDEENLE

[9] = biological target: GORASP1, Q9BQQ3
GORASP1, Q9BQQ3, sequence (Q9BQQ3 1-208): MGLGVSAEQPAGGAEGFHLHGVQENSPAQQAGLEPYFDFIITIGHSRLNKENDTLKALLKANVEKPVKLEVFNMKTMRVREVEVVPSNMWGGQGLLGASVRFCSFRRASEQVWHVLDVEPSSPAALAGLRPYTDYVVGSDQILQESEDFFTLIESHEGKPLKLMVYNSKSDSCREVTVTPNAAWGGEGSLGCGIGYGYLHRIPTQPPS

[10] = biological target: LNX1_3, Q8TBB1
LNX1_3, Q8TBB1, sequence (Q8TBB1 500-596): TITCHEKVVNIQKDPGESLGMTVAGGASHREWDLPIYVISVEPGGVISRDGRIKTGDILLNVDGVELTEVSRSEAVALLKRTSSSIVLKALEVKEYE

[11] = biological target: T4, APBA1_1, Q02410
T4 sequence (Q02410 651-752, limits assumed, looked up): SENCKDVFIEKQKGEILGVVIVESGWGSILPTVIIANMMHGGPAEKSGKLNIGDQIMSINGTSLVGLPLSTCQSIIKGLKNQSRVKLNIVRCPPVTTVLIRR

[12] = biological target: MAST2, Q6P0Q8
MAST2, Q6P0Q8, sequence (Q6P0Q8 1099-1202): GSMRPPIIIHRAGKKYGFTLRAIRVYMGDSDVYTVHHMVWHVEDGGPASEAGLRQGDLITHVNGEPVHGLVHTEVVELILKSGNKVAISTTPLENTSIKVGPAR

[13] = biological target: GIPC2, Q8TF65
GIPC2, Q8TF65, sequence (Q8TF65 112-203): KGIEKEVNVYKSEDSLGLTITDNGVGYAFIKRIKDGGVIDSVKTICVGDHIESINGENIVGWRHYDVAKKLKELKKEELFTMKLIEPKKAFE

[14] = biological target: MAGI2_3, Q86UL8
MAGI2_3, Q86UL8, sequence (Q86UL8 600-682): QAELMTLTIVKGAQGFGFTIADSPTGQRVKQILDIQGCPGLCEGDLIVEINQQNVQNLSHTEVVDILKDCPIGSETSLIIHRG

[15] = biological target: LNX1_2, Q8TBB1
LNX1_2, Q8TBB1, sequence (Q8TBB1 371-470): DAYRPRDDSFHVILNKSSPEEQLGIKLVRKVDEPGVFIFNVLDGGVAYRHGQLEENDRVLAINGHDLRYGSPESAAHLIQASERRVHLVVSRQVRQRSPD

[16] = biological target: Inadl_4, Q8NI35
Inadl_4, Q8NI35, sequence (Q8NI35 547-651): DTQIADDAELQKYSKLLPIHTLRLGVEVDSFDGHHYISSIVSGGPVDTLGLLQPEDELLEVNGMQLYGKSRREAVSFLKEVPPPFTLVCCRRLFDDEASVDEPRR

[17] = biological target: T5, RHPN1, Q8TCX5
T5 sequence (Q8TCX5 508-602, limits assumed, looked up): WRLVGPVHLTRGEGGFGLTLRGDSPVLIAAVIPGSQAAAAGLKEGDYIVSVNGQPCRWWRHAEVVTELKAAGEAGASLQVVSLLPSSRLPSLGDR

[18] = biological target: T6, HTRA3, P83110
T6 sequence (P83110 354-453, limits assumed, looked up): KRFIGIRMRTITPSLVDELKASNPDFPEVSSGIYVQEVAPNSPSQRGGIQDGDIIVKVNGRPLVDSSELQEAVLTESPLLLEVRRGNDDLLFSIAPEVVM

[19] = biological target: MAGI3_2, Q5TCQ9
MAGI3_2, Q5TCQ9, sequence (Q5TCQ9 398-503): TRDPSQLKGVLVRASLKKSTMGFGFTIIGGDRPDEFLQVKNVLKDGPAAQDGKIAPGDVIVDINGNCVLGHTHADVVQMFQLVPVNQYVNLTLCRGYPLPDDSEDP

[20] = biological target: T7, NHERF3_3, Q5T2W1
T7 sequence (Q5T2W1 238-333, limits assumed, looked up): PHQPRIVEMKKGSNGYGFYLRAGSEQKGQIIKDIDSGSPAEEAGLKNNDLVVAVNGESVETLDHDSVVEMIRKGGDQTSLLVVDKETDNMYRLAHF

[21] = biological target: T8, LIN7B, Q9HAP6
T8 sequence (Q9HAP6 88-185, limits assumed, looked up): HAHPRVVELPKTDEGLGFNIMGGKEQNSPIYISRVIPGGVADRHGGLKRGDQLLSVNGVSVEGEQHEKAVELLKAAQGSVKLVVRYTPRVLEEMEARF

[22] = biological target: GOPC, Q9HD26
[23] = biological target: T9, DLG3_2, Q92796
T9 sequence (Q92796 221-321, limits assumed, looked up): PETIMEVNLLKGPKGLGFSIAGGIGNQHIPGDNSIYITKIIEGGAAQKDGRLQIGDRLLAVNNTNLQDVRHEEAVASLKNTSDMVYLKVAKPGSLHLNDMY

[24] = biological target: DLG4_2, P78352
DLG4_2, P78352, sequence (P78352 155-259): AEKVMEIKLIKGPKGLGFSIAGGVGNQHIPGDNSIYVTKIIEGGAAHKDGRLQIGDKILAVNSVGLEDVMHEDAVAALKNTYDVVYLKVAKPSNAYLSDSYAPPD

[25] = biological target: Inadl_10, Q8NI35
Inadl_10, Q8NI35, sequence (Q8NI35 1673-1763): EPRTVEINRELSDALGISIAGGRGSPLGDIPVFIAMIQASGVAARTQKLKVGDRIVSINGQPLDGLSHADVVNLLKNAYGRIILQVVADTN

[26] = biological target: Inadl_6, Q8NI35
Inadl_6, Q8NI35, sequence (Q8NI35 1058-1167): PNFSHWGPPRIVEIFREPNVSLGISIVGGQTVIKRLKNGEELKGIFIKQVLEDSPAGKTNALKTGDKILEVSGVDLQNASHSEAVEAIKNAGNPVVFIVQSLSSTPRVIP

[27] = biological target: FRMPD2_1, Q68DX3
FRMPD2_1, Q68DX3, sequence (Q68DX3 770-861): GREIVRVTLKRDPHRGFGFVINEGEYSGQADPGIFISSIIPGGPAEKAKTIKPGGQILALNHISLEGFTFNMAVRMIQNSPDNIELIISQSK

[28] = biological target: PARD3_3, Q8TEW0
PARD3_3, Q8TEW0, sequence (Q8TEW0 582-685): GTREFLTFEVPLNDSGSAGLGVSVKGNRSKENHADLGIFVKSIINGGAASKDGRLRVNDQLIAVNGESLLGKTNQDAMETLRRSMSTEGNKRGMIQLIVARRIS

Binder | pKd [1] | pKd [2] | pKd [3] | pKd [4] | pKd [5] | pKd [6] | pKd [7] | pKd [8] | pKd [9] | pKd [10] | pKd [11] | pKd [12] | pKd [13] | pKd [14] | pKd [15] | pKd [16] | pKd [17] | pKd [18] | pKd [19] | pKd [20] | other results
SSALYGESDL [ACTN2, P35609] | below the threshold | below the threshold | below the threshold | below the threshold | below the threshold | 3.59 | below the threshold | below the threshold | below the threshold | below the threshold | below the threshold | 5.52 | 4.09 | below the threshold | below the threshold | below the threshold | 3.51 | below the threshold | below the threshold | below the threshold | pKd [21]: 3.76; pKd [22]: below the threshold; pKd [23]: 4.18; pKd [24]: 3.61; pKd [25]: below the threshold; pKd [26]: below the threshold; pKd [27]: below the threshold; pKd [28]: below the threshold
PRISRSQSEL [CCDC134, Q9H6E4] | below the threshold | below the threshold | below the threshold | 4.13 | below the threshold | below the threshold | 3.88 | below the threshold | below the threshold | below the threshold | below the threshold | 5.76 | below the threshold | below the threshold | below the threshold | below the threshold | below the threshold | below the threshold | 4.25 | below the threshold | pKd [21]: 3.62; pKd [22]: below the threshold; pKd [23]: 3.98; pKd [24]: below the threshold; pKd [25]: below the threshold; pKd [26]: below the threshold; pKd [27]: below the threshold; pKd [28]: below the threshold
QPCFNKLFPL [LPXN, O60711] | below the threshold | below the threshold | below the threshold | below the threshold | below the threshold | below the threshold | below the threshold | below the threshold | 3.68 | below the threshold | below the threshold | 4.75 | below the threshold | below the threshold | below the threshold | below the threshold | below the threshold | below the threshold | below the threshold | below the threshold | pKd [21]: below the threshold; pKd [22]: below the threshold; pKd [23]: below the threshold; pKd [24]: below the threshold; pKd [25]: below the threshold; pKd [26]: below the threshold; pKd [27]: below the threshold; pKd [28]: below the threshold
GQEEQVTTRL [TRPC5, Q9UL62] | below the threshold | below the threshold | below the threshold | below the threshold | below the threshold | 3.91 | 4.37 | below the threshold | below the threshold | below the threshold | below the threshold | 5.62 | below the threshold | below the threshold | below the threshold | below the threshold | 4.85 | below the threshold | below the threshold | 4.65 | pKd [21]: below the threshold; pKd [22]: 4.83; pKd [23]: 3.97; pKd [24]: below the threshold; pKd [25]: below the threshold; pKd [26]: 3.79; pKd [27]: below the threshold; pKd [28]: 3.5
